What is called EC50 is the midpoint of the concentration-response curve. A lower EC50 goes with an effect from little substance. The Kd is the concentration at which binding is half-saturated. Lower therefore signals a tighter complex.

Changes are numbered by the printed parent chain.

This is an account of results in patent US20150307625A1 (Bayer, published 2015).

In test [1] the target is T1, mouse Protein C (zymogen) (mouse, UniProt P33587 42-460).
T1 construct: mature; also called mouse PC
T1 sequence (looked up): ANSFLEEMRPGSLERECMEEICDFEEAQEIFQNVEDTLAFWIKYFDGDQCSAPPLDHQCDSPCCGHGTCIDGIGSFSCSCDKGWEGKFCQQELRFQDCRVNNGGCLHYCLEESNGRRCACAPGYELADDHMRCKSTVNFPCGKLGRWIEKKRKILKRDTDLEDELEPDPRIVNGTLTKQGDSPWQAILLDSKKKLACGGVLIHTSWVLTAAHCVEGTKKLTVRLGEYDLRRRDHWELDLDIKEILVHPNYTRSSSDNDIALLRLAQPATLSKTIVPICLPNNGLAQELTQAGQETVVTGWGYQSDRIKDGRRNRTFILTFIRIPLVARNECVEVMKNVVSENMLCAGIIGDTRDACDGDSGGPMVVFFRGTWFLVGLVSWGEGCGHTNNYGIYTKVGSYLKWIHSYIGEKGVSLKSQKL
In words: direct ELISA, mPC coated at 10 ug/ml, positive control antibody specific for the antigen, concentration not given. For orientation: ELISA stands for enzyme-linked immunosorbent assay.

Test [2] deals with activated Factor X. In words: direct ELISA, FXa coated at 10 ug/ml, positive control antibody specific for the antigen, concentration not given.
In test [3] the target is activated Factor IX. Kind of test: direct ELISA, FIXa coated at 5 ug/ml, positive control antibody specific for the antigen, concentration not given.
For test [4], the target named is activated Factor VII. Kind of test: direct ELISA, FVIIa coated at 10 ug/ml, positive control antibody specific for the antigen, concentration not given.
For test [5], the target named is activated Factor II (thrombin) (Homo sapiens (Human)) (UniProt P00734). In words: direct ELISA, FIIa coated at 10 ug/ml, positive control antibody specific for the antigen, concentration not given.
The target of test [6] is T2, dog Protein C (zymogen) (dog, UniProt Q28278 43-456).
T2 construct: mature; also called dog PC
T2 sequence (looked up): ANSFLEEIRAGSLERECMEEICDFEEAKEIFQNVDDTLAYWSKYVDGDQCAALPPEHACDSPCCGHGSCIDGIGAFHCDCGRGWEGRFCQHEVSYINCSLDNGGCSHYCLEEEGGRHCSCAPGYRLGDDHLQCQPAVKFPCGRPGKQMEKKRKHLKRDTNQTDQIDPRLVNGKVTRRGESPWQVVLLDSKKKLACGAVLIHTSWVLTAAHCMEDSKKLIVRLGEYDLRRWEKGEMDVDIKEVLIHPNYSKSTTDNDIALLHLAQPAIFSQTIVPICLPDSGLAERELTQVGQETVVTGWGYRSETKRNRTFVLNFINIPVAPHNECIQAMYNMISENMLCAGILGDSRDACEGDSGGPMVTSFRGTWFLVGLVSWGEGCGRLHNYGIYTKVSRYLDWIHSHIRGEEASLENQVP
Kind of test: direct ELISA, dPC coated at 10 ug/ml, positive control antibody specific for the antigen, concentration not given.

The target of test [7] is T3, human activated Protein C (human, UniProt P04070 43-461). Kind of test: direct ELISA, hAPC coated at 1 ug/ml, positive control antibody specific for the antigen, concentration not given.
Test [8] addresses T2, dog Protein C (zymogen). Kind of test: direct ELISA, antigen coated.
Test [9] has as its target T3, human activated Protein C. In words: cell-based or functional assay.
Test [10] deals with T3, human activated Protein C. Kind of test: cell-based or functional assay. This is another data set of the same source.
Test [11] concerns the target mouse activated Protein C (mouse) (UniProt P33587). In words: direct ELISA, hIgG1.
Test [12] concerns the target T3, human activated Protein C. Kind of test: cell-based or functional assay. This is another data set of the same source.
The target of test [13] is T4, dog activated Protein C (dog, UniProt Q28278 43-456).
T4 sequence (looked up): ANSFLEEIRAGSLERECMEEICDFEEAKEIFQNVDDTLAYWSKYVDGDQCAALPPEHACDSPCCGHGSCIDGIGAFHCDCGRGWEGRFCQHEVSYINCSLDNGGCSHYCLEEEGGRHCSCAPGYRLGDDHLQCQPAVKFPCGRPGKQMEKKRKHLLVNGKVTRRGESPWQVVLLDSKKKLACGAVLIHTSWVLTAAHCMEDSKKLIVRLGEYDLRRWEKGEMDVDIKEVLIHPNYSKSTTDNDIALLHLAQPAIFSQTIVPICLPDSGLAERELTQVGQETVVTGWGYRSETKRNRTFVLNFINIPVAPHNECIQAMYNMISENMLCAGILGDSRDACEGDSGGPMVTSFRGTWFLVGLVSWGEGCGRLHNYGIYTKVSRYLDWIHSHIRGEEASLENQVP
Kind of test: cell-based or functional assay.

In test [14] the target is rabbit activated Protein C (rabbit) (UniProt Q28661). In words: ELISA, hIgG1.
Test [15] has the same target. Kind of test: cell-based or functional assay.
The target in test [16] is T3, human activated Protein C. In words: ELISA, hIgG1.
In test [17] the target is T4, dog activated Protein C. In words: ELISA, hIgG1.
Test [18] deals with T3, human activated Protein C. Kind of test: direct ELISA, aPC coated, hIgG1.
Test [19] has as its target T4, dog activated Protein C. Kind of test: direct ELISA, aPC coated, hIgG1.
The target of test [20] is rabbit activated Protein C (rabbit) (UniProt Q28661). In words: direct ELISA, aPC coated, hIgG1.
Test [21] has as its target mouse activated Protein C (mouse) (UniProt P33587). In words: direct ELISA, aPC coated, hIgG1.
Test [22] deals with T3, human activated Protein C. In words: Biacore, Fab. (In general: In SPR one partner is held on a chip, and binding of the other changes the refractive index at the surface.)
Test [23] has as its target T4, dog activated Protein C. In words: Biacore, Fab.
Test [24] has as its target T3, human activated Protein C. Kind of test: direct ELISA, antigen coated, Fab.
Test [25] deals with T4, dog activated Protein C. Kind of test: direct ELISA, antigen coated, Fab.
Test [26] deals with T4, dog activated Protein C. In words: ELISA and Biacore, as the sentence says.
Test [27] deals with T2, dog Protein C (zymogen). In words: direct ELISA, dPC coated at 10 ug/ml, Fab at 20 nM, anti-human Fab-HRP, AmplexRed (RFU). As to the method:
(§1) To determine the binding selectivity of these fabs, their binding activities to the proenzyme human PC, to thrombin (FIIa), and to the activated Factor II (FIIa, thrombin), Factor VII (FVIIa), Factor IX (FIXa), and Factor X (FXa) were also assessed by ELISA. Briefly, an ELISA plate was coated with human aPC at 1 ug/ml, mouse PC at 10 ug/ml, dog PC at 10 ug/ml, other coagulation factors (FIIa, FVIIa, FIXa, FXa) at 5-10 ug/ml. Anti-aPC Fabs were added to the wells at 20 nM (1 ug/ml). Bound Fabs were detected by the secondary antibody (anti-human Fab-HRP) followed by HRP substrate AmplexRed.

Test [28] deals with T5, human Protein C (zymogen) (human, UniProt P04070 43-461).
T5 construct: also called human PC; hPC
In words: direct ELISA, antigen coated at 100 ng/well, Fab at 20 nM (1 ug/ml), anti-human Fab-HRP, AmplexRed (RFU). As to the method: (§2) FIG. 3 depicts a graph characterizing anti-APC Fabs by direct ELISA. An ELISA plate was coated with human PC (hPC), human aPC (hAPC), dog aPC (dAPC), mouse aPC (mAPC) at 100 ng per well. Purified Fabs designate on the X-axis were added to the plate at 20 nM (1 ug/ml). Bound Fab was detected by the secondary antibody (anti-human Fab-HRP) followed by HRP substrate AmplexRed. The purified Fabs preferentially bind to human aPC and, with the exception of Fab R41C17, show little to no binding to human PC.
(§3) Antigens were coated directly on ELISA plates. Coating antigens included human PC (plasma-derived), human aPC (recombinant), dog aPC (plasma-derived), and mouse aPC (recombinant) at 100 ng/well in PBS/Ca buffer. After blocking the plate with 5% milk/PBS and washing the plate with PBS-Tween20, soluble Fabs (1 ug/ml, 20 nM) were added to the plate and incubated for 1 h at RT with shaking. Fab binding was detected with anti-human Fab (lambda) antibody-HRP and Amplex red as substrate. […] In contrast, R41C17 binds to both human APC and human PC. Also shown in FIG. 3 is cross-species reactivity of Fabs by ELISA.

Test [29] addresses T4, dog activated Protein C. The test is described as above. The method, then: as §2, §3
For test [30], the target named is T1, mouse Protein C (zymogen). Kind of test: direct ELISA, mPC coated at 10 ug/ml, Fab at 20 nM, anti-human Fab-HRP, AmplexRed (RFU). As to the method:
as §1

Test [31] concerns the target T3, human activated Protein C. In words: ELISA titration.

Chain of activated Factor X (P00742 41-179, chain 1 of 2): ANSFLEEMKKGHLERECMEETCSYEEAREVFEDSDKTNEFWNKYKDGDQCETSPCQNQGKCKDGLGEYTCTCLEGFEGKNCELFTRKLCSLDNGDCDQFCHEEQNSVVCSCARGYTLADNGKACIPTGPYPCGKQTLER
Chain of activated Factor X (P00742 235-488, chain 2 of 2): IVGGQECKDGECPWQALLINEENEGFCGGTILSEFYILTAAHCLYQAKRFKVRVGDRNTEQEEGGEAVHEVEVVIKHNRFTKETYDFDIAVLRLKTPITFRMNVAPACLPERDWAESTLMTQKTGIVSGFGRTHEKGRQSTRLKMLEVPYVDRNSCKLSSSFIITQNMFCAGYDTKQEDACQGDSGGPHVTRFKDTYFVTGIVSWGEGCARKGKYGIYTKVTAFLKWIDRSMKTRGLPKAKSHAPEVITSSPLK
Chain of activated Factor VII (P08709 61-212, chain 1 of 2): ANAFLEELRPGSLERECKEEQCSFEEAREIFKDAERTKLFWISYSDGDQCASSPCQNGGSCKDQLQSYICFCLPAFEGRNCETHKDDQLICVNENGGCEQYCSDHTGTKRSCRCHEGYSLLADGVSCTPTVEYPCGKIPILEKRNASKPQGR
Chain of activated Factor VII (P08709 213-466, chain 2 of 2): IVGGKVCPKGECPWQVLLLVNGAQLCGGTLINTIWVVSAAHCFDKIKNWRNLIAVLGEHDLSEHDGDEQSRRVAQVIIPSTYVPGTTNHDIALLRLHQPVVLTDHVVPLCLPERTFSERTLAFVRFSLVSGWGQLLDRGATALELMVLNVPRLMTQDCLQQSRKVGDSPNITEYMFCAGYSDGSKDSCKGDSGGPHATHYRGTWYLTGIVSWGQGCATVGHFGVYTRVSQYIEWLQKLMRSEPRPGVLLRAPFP

For “control Ab (specific for each antigen) (antibody)”, the RFU worked out at 331 RFU in test [1]; 6460 RFU in test [2]; 7370 RFU in test [3]; 10300 RFU in test [4]; 6050 RFU in test [5]; 476 RFU in [6]. Further, the RFU in [7] is 11700 RFU.

B1: T46J23-hIgG1 (antibody, V domains shown)
VH: EVQLLESGGGLVQPGGSLRLSCAASGFTFGNHWMTWVRQAPGKGLEWVSGVSWNGSRTHYADSVKGRFTISRDNSKNTLYLQMNSLRAEDTAVYYCALTGRSGWMRFPNWFDPWGQGTLVTVTS
VL: LTQPPSASGTPGQRVTISCTGTSSNIGAGYDVHWYQQLPGTAPKLLIYDNNNRPSGVPDRFSGSKSGTSASLAISGLRSEDEADYYCAAWDDSLNGVVFGGGTKLTVLG
notes: also called T46J23-IgG
As to B1, the binding result in test [8] is on record as “no binding”. Further, the “IC50 (read off the curve), amidolytic activity of human aPC [b]” value in test [9] is roughly 8 nM. Besides, the “aPTT, inhibition of aPC activity at 1 ug/ml IgG (1:1 molar ratio)” value in test [10] was roughly 50%. Moreover, the EC50 in [11] stood at 6 nM; in [14], 1.7 nM; in test [16] it was 2.2 nM; in test [17] it was 1.7 nM; in [18], 2.18 nM; in [19] it was 1.68 nM. For the same molecule, the 50% effective concentration (EC50) in [20] stood at 7 nM; in [21], 4.6 nM. Further, the “Anti-aPC IC50 (nM), Amidolytic activity” value amounted to 18 nM in [12], 625 nM in test [13] and 17 nM in [15].

B2: T46J23 Fab (Fab, V domains shown)
VH: B1 VH
VL: B1 VL
notes: Human Fab (lambda), expressed in E. coli
As to B2, the Kd in test [22] was found to be 4.1 nM; in test [23], 21 nM; in test [26], 22 nM. Further, the EC50 was found to be 6.7 nM in test [24] and 16.6 nM in test [25]. For the same molecule, the binding result in test [27] is listed as “no binding (tested: 20 nM)”.

B3: Variant 2312 (modified C25K23 IgG) (antibody, V domains shown)
VH: B1 VH with G30S, N31S, H32Y, T35S, S56A, T123S
VL: QSVLTQPPSVSGAPGQRVTISCTGSSSNIGAAYDVHWYQQLPGTAPKLLIYGNNKRPSGVPDRFSGSKSGTSASLAITGLQAEDEADYYCQSYDSSLSGSVFGGGTKLTVLG
For B3, the “IC50 (read off the curve), amidolytic activity of human aPC [b]” value in [9] is roughly 10 nM.

B4: R41E3 Fab (Fab, V domains shown)
VH: EVQLLESGGGLVQPGGSLRLSCAASGFTFNNYAMTWVRQAPGKGLEWVSGVSWNGSRTHYADSVKGRFTISRDNSKNTLYLQMNSLRAEDTAVYYCARADSSSAGRWAGSLDYWGQGTLVTVTS
VL: LTQPPSASGTPGQRVTISCSGSSSNIGNNAVNWYQQLPGTAPKLLIYSNNQRPSGVPDRFSGSKSGTSASLAISGLRSEDEADYYCSSYTSSSTHVVFGGGTKLTVLG
notes: as for B2
B4 had a Kd in [22] of 11 nM. Further, the concentration giving a half-maximal response (EC50) in test [24] came to 10.4 nM; in test [31], 104 nM. In addition, the binding result in test [28], in test [29], in test [30] and in test [27] was “no binding (tested: 20 nM)” in each case.
